Two molecules from paper PMC12199146, “Unique conformational dynamics and protein recognition of A-to-I hyper-edited dsRNA” can be followed below.

The target of series [1] is T1, Endonuclease V (EcEndoV), wild-type (Escherichia coli, UniProt P68739 1-223).
T1 sequence: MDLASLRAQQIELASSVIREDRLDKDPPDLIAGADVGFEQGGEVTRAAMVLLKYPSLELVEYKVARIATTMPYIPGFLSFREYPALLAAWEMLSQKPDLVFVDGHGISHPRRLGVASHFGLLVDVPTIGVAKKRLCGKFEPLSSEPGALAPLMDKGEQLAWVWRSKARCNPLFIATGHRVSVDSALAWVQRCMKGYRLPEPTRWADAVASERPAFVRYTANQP
Briefly: NMR imino line broadening; 5 mM Mg2+, 150 mM NaCl, 288 K, 1:1; backbone interaction, non-specific; EMSA: 25 mM sodium phosphate pH 6.5, 50-300 mM NaCl (500 mM in Fig. S17E), 1 mM DTT, 5 mM MgCl2, 30 min on ice, 2 pmol RNA in 10 ul, 12% native gel in TBE at room temperature; NMR: 25 mM sodium phosphate pH 6.5, 150 mM NaCl, 5 mM MgCl2, 1 mM DTT, 5% D2O, 50 uM RNA, 288 K. The note with it: protein: recombinant; tags: N-terminal His-tag removed with TEV protease; 20-mer duplex, residues 1-40. A general note: A gel shift assay detects complexes by their altered migration in electrophoresis.

For series [2], the target named is T1, Endonuclease V (EcEndoV), wild-type. Briefly: EMSA; EMSA: 25 mM sodium phosphate pH 6.5, 50-300 mM NaCl (500 mM in Fig. S17E), 1 mM DTT, 5 mM MgCl2, 30 min on ice, 2 pmol RNA in 10 ul, 12% native gel in TBE at room temperature; NMR: 25 mM sodium phosphate pH 6.5, 150 mM NaCl, 5 mM MgCl2, 1 mM DTT, 5% D2O, 50 uM RNA, 288 K. The note with it: protein: recombinant; tags: N-terminal His-tag removed with TEV protease; single strand.

B1: A-RNA (non-edited 20-mer dsRNA) (dsRNA)
RNA 1: ACUGGACAAAUACUCCGAGG
RNA 2: CCUCGGAGUAUUUGUCCAGU
B1: the binding result in series [1] is recorded as “binds”.

B2: ssRNA substrate(s) without inosine (ssRNA)
RNA: CCUCGGAGUAUUUGUCCAGU
As to B2, the binding result in series [2] is “no binding”.
